Among the data in patent US20240294650A1 are MFI values, retold here.

The labels stand for the following.
B1: MTK-221 (antibody, human IgG1, V domains shown)
VH: QVTLKESGPGMLQSSQTLSLTCSFSGFSLSTSGMGVSWIRQPSGKGLEWLAHIYWDDDKRYNTSLQSRLTISKDTSRNQVFLKITSVDTADTATYFCGRLGAYSAFPYYFDYWGQGTTLTVSS
VL: DIQMTQSPSSLSASLGGKVTITCKASQDIHKHIAWYQHKPGKGPRLLIHYTSTLQPGIPSRFSGSGSGRDYSFSISNLEPEDLATYYCLQYDNLWTFGGGTKLEIK
B2: MTK-208 (antibody, human IgG1, V domains shown)
VH: QVQLQQPGAELVVPGASVRLSCKASGYTFINYWMHWVKQRPGQGLEWIGEIDPSDSYANYNQKFKDKSTLSLDKSSSTAYMQLSSLTSEDSAVYYCARCDYYGRLDYWGQGTTLTVSS
VL: QVVLTQSPAIMSASPGEKVTITCSASSSVSYMLWFQQKPGTSPKLWIYSTSNLASGVPARFSGSGSGTSYSLTISRLEAEDAATYYCQQRSSYPPITFGAGTKLELK
B3: MTK-210 (antibody, human IgG1, V domains shown)
VH: QVQLQQSGPELVKPGASVKISCKASDYEFSRSWMNWVKQRPGKGLEWIGRIYPGDGDTNYNGKFKGKATLTADKSSNTAYMQLNSLTSEDSAVYFCARKGGYYYSISNYFDYWGQGTTLTVSS
VL: QIVLTQSPAIMSASPGVKVTMTCSASSSVSYMHWYQQKPGSSPRLLIYDTSNLASGVPVRFSGSGSGTSYSLTISRMEAEDAATYYCQQWSSYPPYTFGGGTKLEIK
B4: MTK-201 (antibody, human IgG1, V domains shown)
VH: QVQLRQSGPGLVQPSQSLSITCTVSGFSLSNYGLHWVRQSPGKGLEWLGVIWSGGITDYNAAFISRLSIIKDNSRSQVFFKMNSLQADDTAIYYCARKGHDPYAMDFWGQGTSVTVSS
VL: QIVLTQSPPIMSAFLGERVTMTCTASSSVSSSYLHWYRQMPGSSPKLWIYDTSNLASGVPARFSGSGSGTSYSLTISSMEAEDAATYYCHQYHHSPYTFGGGTKLEIK
B5: MTK-217 (antibody, human IgG1, V domains shown)
VH: QVQLQQPGTEVVKPGASVKMSCRASGYTFTSYWITWVKQRPGQGLEWIGDIHPGSGINNYNEKFRSKATLTVDTSSSTVYMELSSLTSEDSAVYYCAKGGYYGSSYYVMDYWGQGTSVTVSS
VL: DILLTQSPAILSVSPGERVSFSCRASQTIGTSIHWYQQRTNDSPRLLIKYASESISGIPSRFSGSGSGTDFTLSINSVESEDIADYYCQQSNDWPYTFGGGTKLEIK

In this experiment the target is endogenous murine MerTK on bone marrow-derived macrophages (mouse) (UniProt Q60805). Nature of the experiment: FACS, mouse BMDM, WT minus MerTK KO.
Sequence of endogenous murine MerTK on bone marrow-derived macrophages (mouse) (Q60805 19-994): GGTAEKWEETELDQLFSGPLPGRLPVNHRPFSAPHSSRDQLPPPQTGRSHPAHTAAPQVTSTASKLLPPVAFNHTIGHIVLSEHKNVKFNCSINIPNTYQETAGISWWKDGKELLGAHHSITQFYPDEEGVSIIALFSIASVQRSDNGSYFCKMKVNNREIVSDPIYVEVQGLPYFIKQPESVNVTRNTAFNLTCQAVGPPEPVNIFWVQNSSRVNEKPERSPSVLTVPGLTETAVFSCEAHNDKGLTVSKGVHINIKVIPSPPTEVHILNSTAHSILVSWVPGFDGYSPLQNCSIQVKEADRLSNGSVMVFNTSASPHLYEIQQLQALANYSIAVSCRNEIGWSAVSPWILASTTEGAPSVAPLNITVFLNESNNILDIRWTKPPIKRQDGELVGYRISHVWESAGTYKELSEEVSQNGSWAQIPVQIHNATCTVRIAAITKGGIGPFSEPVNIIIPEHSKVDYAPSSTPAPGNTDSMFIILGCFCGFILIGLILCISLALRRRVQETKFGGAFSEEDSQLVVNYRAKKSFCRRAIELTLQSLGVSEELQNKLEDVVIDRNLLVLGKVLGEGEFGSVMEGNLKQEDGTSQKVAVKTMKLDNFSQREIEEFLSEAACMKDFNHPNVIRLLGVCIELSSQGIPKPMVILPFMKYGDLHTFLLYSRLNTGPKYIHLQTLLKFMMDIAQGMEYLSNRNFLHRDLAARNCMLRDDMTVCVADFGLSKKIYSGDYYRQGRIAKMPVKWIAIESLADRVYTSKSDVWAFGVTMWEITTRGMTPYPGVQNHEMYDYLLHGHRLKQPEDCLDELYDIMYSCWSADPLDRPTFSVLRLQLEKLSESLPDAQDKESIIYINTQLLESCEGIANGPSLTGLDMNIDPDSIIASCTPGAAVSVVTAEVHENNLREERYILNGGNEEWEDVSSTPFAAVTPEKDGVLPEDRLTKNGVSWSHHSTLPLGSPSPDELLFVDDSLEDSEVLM
B1 came in with an MFI of 993 MFI.
The same measure for B2: 1170 MFI; for B3: 1270 MFI.
Under B4 stands 1030 MFI.
Under B5 stands 1130 MFI.
